Reference: publication PMC6200863, “Hydrogen Peroxide-Based Fluorometric Assay for Real-Time Monitoring of SAM-Dependent Methyltransferases” (Frontiers in Bioengineering and Biotechnology, 2018)

Substrate: O=C(O)c1ccccc1O
Experiment: Mtn/XOD/HRP-coupled Amplex Red fluorescence, initial rates, non-linear regression
Type: biochemical, Clarkia breweri
Conditions: 0.5 mM SAM, 5 mM MgCl2, 1 mM KCl, pH 7.5, 30°C, coupling enzymes possibly rate-limiting

B1: SA MTase (salicylic acid methyltransferase) (Clarkia breweri) (protein)
chain: MDVRQVLHMKGGAGENSYAMNSFIQRQVISITKPITEAAITALYSGDTVTTRLAIADLGCSSGPNALFAVTELIKTVEELRKKMGRENSPEYQIFLNDLPGNDFNAIFRSLPIENDVDGVCFINGVPGSFYGRLFPRNTLHFIHSSYSLMWLSQVPIGIESNKGNIYMANTCPQSVLNAYYKQFQEDHALFLRCRAQEVVPGGRMVLTILGRRSEDRASTECCLIWQLLAMALNQMVSEGLIEEEKMDKFNIPQYTPSPTEVEAEILKEGSFLIDHIEASEIYWSSCTKDGDGGGSVEEEGYNVARCMRAVAEPLLLDHFGEAIIEDVFHRYKLLIIERMSKEKTKFINVIVSLIRKSD
  Km: 6.8 (±1.0) μM
  kcat: 0.98 (±0.3) min^-1
